# From the supplement of paper PMC10065799, “High-throughput profiling of sequence recognition by tyrosine kinases and SH2 domains using bacterial peptide display” (eLife, 2023)
# Legend:
# SHP2-C SH2 = test: SH2 binding enrichment of the phosphorylated peptide, bacterial display (enrichment ratio); higher = better substrate or ligand; peptides without Tyr show the background
# Grb2 SH2 = Grb2 SH2 (UniProt P62993); test: as above
# c-Src SH2 = test: as above
# Jak2 = Jak2 (UniProt O60674); test: phosphorylation enrichment, bacterial display (enrichment ratio); higher = better substrate or ligand; peptides without Tyr show the background
# Fyn = Fyn (UniProt P06241); test: as above
# Hck = Hck (UniProt P08631); test: as above
# AncSZ = test: as above
# EPHB2 = EPHB2 (UniProt P29323); test: as above
# Fes = Fes (UniProt P07332); test: as above
# FGFR1 = FGFR1 (UniProt P11362); test: as above
# c-Src = test: as above
# FGFR3 = FGFR3 (UniProt P22607); test: as above
# Fer (mouse) = test: as above
# EPHB1 = EPHB1 (UniProt P54762); test: as above
# MERTK = MERTK (UniProt Q12866); test: as above
# c-Abl (mouse) = test: as above
# 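For SH2 binding enrichment of the phosphorylated peptide, bacterial display in this document: peptide library displayed on the E. coli surface as eCPX fusions, selected cells deep-sequenced, score is each peptide's frequency after selection divided by its frequency in the input.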
# 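For phosphorylation enrichment, bacterial display in this document: 11-residue human phosphosite peptides and single-mutation variants displayed on the E. coli surface, counted by deep sequencing, each peptide's frequency after selection divided by its frequency in the unselected input library; frequency after pTyr selection over input frequency; kinase dosed for 20-30% of maximal phosphorylation in three min.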
# Chain of FGFR1 (P11362 whole entry, looked up): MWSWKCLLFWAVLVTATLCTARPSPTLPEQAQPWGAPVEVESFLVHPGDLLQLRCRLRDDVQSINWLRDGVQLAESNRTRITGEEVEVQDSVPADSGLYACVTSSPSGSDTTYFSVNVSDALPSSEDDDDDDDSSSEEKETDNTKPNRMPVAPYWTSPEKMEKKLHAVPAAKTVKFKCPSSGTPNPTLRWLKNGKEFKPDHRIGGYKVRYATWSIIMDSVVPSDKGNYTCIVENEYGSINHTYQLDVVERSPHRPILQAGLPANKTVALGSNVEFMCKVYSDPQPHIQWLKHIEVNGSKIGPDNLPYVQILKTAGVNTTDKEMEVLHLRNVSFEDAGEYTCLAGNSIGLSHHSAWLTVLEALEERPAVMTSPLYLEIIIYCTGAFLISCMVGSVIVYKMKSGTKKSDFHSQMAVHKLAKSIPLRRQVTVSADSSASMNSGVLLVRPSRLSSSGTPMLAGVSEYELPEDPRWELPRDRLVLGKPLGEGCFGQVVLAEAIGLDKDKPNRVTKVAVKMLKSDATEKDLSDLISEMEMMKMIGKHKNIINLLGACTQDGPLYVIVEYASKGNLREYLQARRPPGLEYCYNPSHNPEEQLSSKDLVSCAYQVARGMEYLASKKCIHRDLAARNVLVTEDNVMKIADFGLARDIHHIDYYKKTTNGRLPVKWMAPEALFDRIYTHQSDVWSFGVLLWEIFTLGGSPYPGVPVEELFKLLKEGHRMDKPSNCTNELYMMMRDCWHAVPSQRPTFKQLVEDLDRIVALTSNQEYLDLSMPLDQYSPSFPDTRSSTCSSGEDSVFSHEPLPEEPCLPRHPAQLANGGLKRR
# Chain of Jak2 (O60674 whole entry, looked up): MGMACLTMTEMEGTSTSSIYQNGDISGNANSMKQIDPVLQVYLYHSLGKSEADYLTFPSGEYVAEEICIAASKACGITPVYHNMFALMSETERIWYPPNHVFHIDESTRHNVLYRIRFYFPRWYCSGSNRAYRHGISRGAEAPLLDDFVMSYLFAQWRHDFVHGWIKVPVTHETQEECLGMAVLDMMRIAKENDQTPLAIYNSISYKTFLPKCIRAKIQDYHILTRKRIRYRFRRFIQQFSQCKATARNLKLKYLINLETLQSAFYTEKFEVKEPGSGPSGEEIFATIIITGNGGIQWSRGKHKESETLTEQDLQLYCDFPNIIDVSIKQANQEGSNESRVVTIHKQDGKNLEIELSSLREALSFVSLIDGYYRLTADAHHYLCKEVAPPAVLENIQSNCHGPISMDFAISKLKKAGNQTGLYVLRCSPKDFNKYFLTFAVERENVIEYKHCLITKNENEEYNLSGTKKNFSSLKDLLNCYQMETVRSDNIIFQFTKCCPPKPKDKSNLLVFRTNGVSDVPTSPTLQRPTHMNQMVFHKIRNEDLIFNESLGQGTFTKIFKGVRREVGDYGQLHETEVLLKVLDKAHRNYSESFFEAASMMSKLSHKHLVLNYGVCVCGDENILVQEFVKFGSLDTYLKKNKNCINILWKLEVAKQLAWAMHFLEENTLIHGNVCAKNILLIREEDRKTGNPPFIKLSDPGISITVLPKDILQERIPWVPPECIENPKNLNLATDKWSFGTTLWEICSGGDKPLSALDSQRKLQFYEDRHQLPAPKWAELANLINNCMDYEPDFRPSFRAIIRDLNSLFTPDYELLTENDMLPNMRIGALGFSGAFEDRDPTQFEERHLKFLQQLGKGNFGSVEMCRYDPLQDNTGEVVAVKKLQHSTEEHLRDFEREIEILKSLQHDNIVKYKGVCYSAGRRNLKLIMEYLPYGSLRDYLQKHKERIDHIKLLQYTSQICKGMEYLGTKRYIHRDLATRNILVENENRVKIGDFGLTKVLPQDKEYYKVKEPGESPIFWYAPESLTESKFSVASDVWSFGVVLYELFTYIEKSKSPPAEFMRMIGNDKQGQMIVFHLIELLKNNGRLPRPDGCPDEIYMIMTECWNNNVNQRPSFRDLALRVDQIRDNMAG
# Chain of EPHB1 (P54762 whole entry, looked up): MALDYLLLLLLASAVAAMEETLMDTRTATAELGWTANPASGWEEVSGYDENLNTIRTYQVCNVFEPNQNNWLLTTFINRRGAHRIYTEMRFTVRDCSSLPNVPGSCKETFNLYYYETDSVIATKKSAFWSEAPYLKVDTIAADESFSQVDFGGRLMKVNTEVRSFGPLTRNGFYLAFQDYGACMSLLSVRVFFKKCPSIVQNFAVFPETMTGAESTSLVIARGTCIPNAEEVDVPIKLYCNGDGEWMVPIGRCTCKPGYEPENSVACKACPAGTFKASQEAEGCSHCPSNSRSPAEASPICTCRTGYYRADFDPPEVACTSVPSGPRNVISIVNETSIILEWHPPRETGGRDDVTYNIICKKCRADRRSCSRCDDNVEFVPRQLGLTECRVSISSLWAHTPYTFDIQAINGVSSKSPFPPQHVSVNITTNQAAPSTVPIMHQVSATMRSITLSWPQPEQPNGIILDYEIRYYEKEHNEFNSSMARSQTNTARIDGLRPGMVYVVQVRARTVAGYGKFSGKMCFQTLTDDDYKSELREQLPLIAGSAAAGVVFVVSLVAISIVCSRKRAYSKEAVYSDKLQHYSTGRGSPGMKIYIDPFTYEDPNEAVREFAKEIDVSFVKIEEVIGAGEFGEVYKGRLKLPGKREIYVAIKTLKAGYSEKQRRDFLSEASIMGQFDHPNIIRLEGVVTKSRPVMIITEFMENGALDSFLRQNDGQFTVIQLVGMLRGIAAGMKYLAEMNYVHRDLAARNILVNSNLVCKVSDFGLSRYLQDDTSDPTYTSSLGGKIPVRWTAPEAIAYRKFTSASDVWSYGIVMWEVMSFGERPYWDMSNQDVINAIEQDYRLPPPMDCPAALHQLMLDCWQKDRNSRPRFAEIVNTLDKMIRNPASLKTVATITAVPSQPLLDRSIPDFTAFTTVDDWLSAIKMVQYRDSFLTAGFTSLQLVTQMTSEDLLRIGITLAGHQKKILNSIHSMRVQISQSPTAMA
# Chain of MERTK (Q12866 whole entry, looked up): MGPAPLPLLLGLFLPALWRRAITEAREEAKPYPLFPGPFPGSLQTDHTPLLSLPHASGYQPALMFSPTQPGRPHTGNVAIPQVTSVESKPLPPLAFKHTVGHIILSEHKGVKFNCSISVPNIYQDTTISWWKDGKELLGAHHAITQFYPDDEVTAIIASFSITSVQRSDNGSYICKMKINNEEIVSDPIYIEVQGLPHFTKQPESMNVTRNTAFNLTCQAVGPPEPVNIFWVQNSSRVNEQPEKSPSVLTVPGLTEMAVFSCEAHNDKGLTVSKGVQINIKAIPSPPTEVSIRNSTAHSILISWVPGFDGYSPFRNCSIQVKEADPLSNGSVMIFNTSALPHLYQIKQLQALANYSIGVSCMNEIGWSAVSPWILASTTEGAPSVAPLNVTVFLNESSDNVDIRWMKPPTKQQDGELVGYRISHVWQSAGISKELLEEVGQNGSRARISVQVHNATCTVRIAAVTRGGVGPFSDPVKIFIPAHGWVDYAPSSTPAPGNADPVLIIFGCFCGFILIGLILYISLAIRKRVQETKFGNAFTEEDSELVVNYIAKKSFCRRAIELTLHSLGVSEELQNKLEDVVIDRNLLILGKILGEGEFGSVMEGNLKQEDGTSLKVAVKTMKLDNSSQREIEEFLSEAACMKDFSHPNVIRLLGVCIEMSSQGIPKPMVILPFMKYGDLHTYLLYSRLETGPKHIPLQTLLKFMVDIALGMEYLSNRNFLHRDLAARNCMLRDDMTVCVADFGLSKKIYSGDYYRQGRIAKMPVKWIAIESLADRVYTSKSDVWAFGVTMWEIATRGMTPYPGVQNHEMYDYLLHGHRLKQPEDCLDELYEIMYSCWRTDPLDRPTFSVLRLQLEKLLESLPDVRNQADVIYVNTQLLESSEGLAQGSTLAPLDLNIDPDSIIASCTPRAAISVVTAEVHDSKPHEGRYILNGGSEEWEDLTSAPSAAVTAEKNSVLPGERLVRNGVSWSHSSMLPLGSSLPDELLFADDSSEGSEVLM
# Chain of Hck (P08631 whole entry, looked up): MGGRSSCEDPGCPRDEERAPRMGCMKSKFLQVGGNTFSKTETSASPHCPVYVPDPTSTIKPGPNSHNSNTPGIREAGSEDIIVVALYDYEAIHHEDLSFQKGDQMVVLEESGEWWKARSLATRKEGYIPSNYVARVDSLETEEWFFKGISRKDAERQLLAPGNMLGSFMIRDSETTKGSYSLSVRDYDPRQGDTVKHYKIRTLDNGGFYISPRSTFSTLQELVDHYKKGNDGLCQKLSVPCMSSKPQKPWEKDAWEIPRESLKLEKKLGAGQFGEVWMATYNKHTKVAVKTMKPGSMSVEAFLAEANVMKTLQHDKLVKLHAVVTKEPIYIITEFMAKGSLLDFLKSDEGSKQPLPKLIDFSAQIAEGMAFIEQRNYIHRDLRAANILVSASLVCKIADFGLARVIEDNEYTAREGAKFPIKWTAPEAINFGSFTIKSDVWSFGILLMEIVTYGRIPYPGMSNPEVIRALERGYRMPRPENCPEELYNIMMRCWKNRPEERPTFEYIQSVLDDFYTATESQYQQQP
# Chain of Fyn (P06241 whole entry, looked up): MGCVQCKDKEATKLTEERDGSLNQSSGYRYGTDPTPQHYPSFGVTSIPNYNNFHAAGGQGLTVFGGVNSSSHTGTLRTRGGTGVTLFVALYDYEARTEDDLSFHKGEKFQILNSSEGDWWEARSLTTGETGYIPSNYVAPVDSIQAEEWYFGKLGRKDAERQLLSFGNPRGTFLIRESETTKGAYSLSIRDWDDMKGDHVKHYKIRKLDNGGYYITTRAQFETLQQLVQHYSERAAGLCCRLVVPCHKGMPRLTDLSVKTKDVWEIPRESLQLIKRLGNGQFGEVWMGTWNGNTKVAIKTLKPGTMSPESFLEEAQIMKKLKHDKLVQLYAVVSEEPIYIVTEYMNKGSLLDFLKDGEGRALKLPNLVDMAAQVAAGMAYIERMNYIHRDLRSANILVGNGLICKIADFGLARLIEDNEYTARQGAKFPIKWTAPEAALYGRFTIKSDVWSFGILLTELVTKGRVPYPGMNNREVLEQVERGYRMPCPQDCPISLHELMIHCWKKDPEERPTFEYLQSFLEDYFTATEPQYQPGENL
Sequence,SH2 binding enrichment (SHP2-C SH2),SH2 binding enrichment (Grb2 SH2),SH2 binding enrichment (c-Src SH2),phosphorylation enrichment (Jak2),phosphorylation enrichment (Fyn),phosphorylation enrichment (Hck),phosphorylation enrichment (AncSZ),phosphorylation enrichment (EPHB2),phosphorylation enrichment (Fes),phosphorylation enrichment (FGFR1),phosphorylation enrichment (c-Src),phosphorylation enrichment (FGFR3),phosphorylation enrichment (Fer (mouse)),phosphorylation enrichment (EPHB1),phosphorylation enrichment (MERTK),phosphorylation enrichment (c-Abl (mouse))
YGGLRYGYGVL [KRTAP20-2_Y13],1.09,1.07,0.707,0.658,1.25,1.42,0.671,0.608,0.741,0.559,1.64,0.518,0.448,0.415,0.497,0.536
AKLNIYKRKVE [VWA3B_Y918],0.664,0.854,0.517,0.603,0.53,0.307,0.486,0.305,0.504,0.331,0.4,0.422,0.34,0.309,0.448,0.91
RIVEIYSRSLQ [GCH1_Y175_R178S],0.701,0.944,0.485,0.895,1.52,2.61,1.43,0.985,1.95,0.753,1.28,1.67,0.87,1.03,1.17,1.07
PKEQKYSFLQD [GH1_Y68_N73D],0.895,0.945,1.15,0.809,0.523,0.619,0.948,0.693,1.16,0.597,0.628,0.532,0.435,0.605,0.858,1.05
APGDAYGDAGF [SYP_Y250_YF],0.545,0.714,0.469,0.8,0.494,0.566,0.938,0.548,0.905,0.484,0.464,0.521,0.491,0.514,0.426,0.565
YPLELYERVRI [PRKCG_Y312_M317I],0.736,0.974,1.03,0.895,0.584,1.74,1.08,1.23,1.01,0.459,0.493,0.56,4.38,1.9,0.437,0.58
LEIETYRRLRD [KRT12_Y429_L433R],0.725,0.754,0.471,1.23,0.658,0.674,0.859,0.559,1.25,0.645,0.672,0.809,0.351,0.533,0.834,0.659
MSRDIYSTDYY [NTRK1_Y676],0.752,1.07,0.729,1.01,4.75,3.99,1.83,8.84,0.933,4.81,5.12,3.6,1.5,6.24,9.04,0.733
LITTLYIGFLD [KCNQ1_Y267_G272D],0.906,1.09,0.744,3.07,2.56,1.71,2.56,1.16,3.12,0.777,4.15,1.35,1.78,1.25,0.929,2.36
HLVSEYQQFQD [TUBB3_Y422_D417H_YF],0.75,0.869,0.544,0.917,0.577,0.524,1.07,0.916,0.974,0.741,0.728,0.54,0.338,0.819,0.336,0.559
NFCPGYNNFFN [USH2A_Y467_R464C_YF],0.889,2.15,1.05,0.775,0.434,0.426,0.733,0.43,0.79,0.415,0.719,0.524,0.455,0.393,0.458,0.577
IHSGIYFKPES [L2HGDH_Y102_YF],0.829,0.747,0.777,2.59,1.72,2.14,1.39,0.674,0.887,0.702,1.96,0.744,0.497,0.996,6.44,8.52
VNTTLYEKFTY [TEK_Y1108],0.826,0.764,3.14,0.804,3.69,4.55,0.983,1.13,0.879,0.483,3.87,0.648,5.72,1.92,4.25,0.908
VDSIEYEVASQ [SLC7A7_Y7_T5I],0.741,0.793,0.452,1.36,0.491,0.567,1.22,0.618,1.18,0.451,0.466,0.729,0.464,0.594,0.545,0.821
EYGSGYPNDPK [RNASEH2A_Y210_D205E],0.626,0.8,0.352,0.672,0.446,0.593,0.697,0.458,0.794,0.433,0.386,0.474,0.505,0.369,0.425,0.574
IFLADYRIMEG [ALOX12B_Y318_YF],1.12,1.16,0.987,0.782,0.408,0.421,0.689,0.523,0.984,0.814,0.528,0.787,0.453,0.454,0.478,0.641
VSSSDYFSFVL [USP24_Y2138_Y2134S],0.679,0.715,0.52,8.84,5.34,2.49,3.42,3.25,1.66,12.3,7.49,10.5,1.1,4.7,4.39,4.78
